Results from article PMC9067507, “F/YGG-motif is an intrinsically disordered nucleic-acid binding motif”.

Columns and labels:
Experiment in all cases: MST; 10 mM MgCl2; MST: 20 mM HEPES pH 7.5, 10 mM MgCl2, 0.05% Tween-20; 420 nM labelled U30 with protein titrated, or labelled peptide with RNA titrated; temperature not stated
hnRNPA2 LCD deltaNAID2 = molecular target: T1, hnRNPA2 LCD deltaNAID2 (human, UniProt P22626 200-306, del307-353); details: protein: recombinant; (stated for LCD only)
T1 sequence: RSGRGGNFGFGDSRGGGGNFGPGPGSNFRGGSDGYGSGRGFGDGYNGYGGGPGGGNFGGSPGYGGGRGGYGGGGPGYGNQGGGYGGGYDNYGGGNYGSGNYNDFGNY

hnRNPA2 LCD deltaNAID1 = molecular target: T2, hnRNPA2 LCD deltaNAID1 (human, UniProt P22626 200-353, del239-306); details: protein: recombinant; (stated for LCD only)
T2 sequence: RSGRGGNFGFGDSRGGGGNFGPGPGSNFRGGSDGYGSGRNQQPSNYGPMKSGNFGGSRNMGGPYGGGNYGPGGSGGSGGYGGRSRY

hnRNPA2 LCD = hnRNPA2 LCD (human, UniProt P22626 200-353); details: protein: recombinant; tags: 6xHis removed by TEV
hnRNPA2 LCD, sequence (P22626 200-353): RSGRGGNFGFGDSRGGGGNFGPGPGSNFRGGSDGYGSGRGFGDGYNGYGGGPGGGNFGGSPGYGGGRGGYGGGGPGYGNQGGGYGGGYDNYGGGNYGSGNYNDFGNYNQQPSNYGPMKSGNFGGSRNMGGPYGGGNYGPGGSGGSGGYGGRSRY

## UUUUUUUUUUUUUUUUUUUUUUUUUUUUUU (ssRNA) [U30 (labelled)]
hnRNPA2 LCD deltaNAID2
  Kd: 13 ± 3 µM
hnRNPA2 LCD deltaNAID1
  Kd: 41 ± 1.4 µM
hnRNPA2 LCD
  Kd: 0.72 ± 0.002 µM
